The target in the test is PcrV of P. aeruginosa strain PA103 (on TTSS-induced bacteria) (Pseudomonas aeruginosa strain PA103). The test is described as follows: cell-based or functional assay.

This note sets out measurements from patent publication US20190055322A1.

B1: Nanobody 258 (13F07-40GS-14E10) (VHH)
chain: EVQLVESGGGLVQAGGSLRLSCAASGNTFSTNPMYWYRQAEGKQRELVASISSRGITNYADSVRGRFSISRDNTKDTVYLQMNSLKPEDTAVYYCRLASLSSGTVYWGKGTLVTVSSGGGGSGGGGSGGGGSGGGGSGGGGSGGGGSGGGGSGGGGSEVQLVESGGGLVQPGGSLRLSCAASGRIFSINTMGWYRQAPGKQRELVAGVTINAITNYADSVKGRFTISRDNAKNTVWLQMNSLKPEDTAVYYCHAWARSSGSAPYSQNWGQGTLVTVSS
Regarding B1, the % inhibition in P3X63 cytotoxicity assay, extract 1/150 came out at 69%; the Efficacy (%), P3X63 cytotoxicity, MOI 12 stood at 100%; the IC50 value (M), P3X63 cytotoxicity, MOI 12 was determined as 9e-11 M; the Ratio (IC50 Fab 13.37/IC50 Nanobody), A549 cytotoxicity was found to be 1 fold.

B2: Fab 26.24 (Fab, V domains shown)
VH: EVQLVESGGGVVQPGRSLRLSCAASGFTFSNYPMHWVRQAPGKGLEWVAVISYDGSEKWYADSVKGRFTISRDNSKNTLYLEMNSLRPEDTAVYYCARNRGDIYYDFTYAMDIWGQGTTVTVSS
VL: DIQLTQSPSTLSASVGDSVTITCRASEGVDRWLAWYQQKPGRAPKLLIYDASTLQSGVPSRFSGSGSGTEFSLTISSLQPDDVATYYCQHFWGTPYTFGQGTKLEIKR
As to B2, the % inhibition, P3X63 cytotoxicity assay, MOI 1.5 turned out to be 100%; the % inhibition, P3X63 cytotoxicity assay, MOI 4 turned out to be 100%; the IC50 (nM), P3X63 cytotoxicity assay, MOI 1.5 came out at 34 nM; the IC50 (nM), P3X63 cytotoxicity assay, MOI 4 came out at 48 nM.

B3: Nanobody 269 (6B05-40GS-13F07) (VHH)
chain: EVQLVESGGGLVQPGGSLRLSCAASGSIFSINTMGWYRQAPGKQRELVSTITSNLVPHYADSVQGRFTISRDNARNTVYLQMNSLKPQDTAHYYCNAWARSSGATPYTNYWGQGTLVTVSSGGGGSGGGGSGGGGSGGGGSGGGGSGGGGSGGGGSGGGGSEVQLVESGGGLVQAGGSLRLSCAASGNTFSTNPMYWYRQAEGKQRELVASISSRGITNYADSVRGRFSISRDNTKDTVYLQMNSLKPEDTAVYYCRLASLSSGTVYWGKGTLVTVSS
For B3, the % inhibition in P3X63 cytotoxicity assay, extract 1/150 turned out to be 41%; the Efficacy (%), P3X63 cytotoxicity, MOI 12 was 100%; the IC50 value (M), P3X63 cytotoxicity, MOI 12 came out at 8.2e-10 M; the Ratio (IC50 Fab 13.37/IC50 Nanobody), A549 cytotoxicity was 1 fold.

B4: Nanobody 308 (6B05-40GS-1E11) (VHH)
chain: EVQLVESGGGLVQPGGSLRLSCAASGSIFSINTMGWYRQAPGKQRELVSTITSNLVPHYADSVQGRFTISRDNARNTVYLQMNSLKPQDTAHYYCNAWARSSGATPYTNYWGQGTLVTVSSGGGGSGGGGSGGGGSGGGGSGGGGSGGGGSGGGGSGGGGSEVQLVESGGGLVQPGGSLRLSCAASGSTRSVNPMAWFRQAPGRQREWVATISRSGYATYADSVKGRFTISGDNAKSSVYLQMNSLKPEDTAVYYCVTGTYWGQGTLVTVSS
With B4, the % inhibition in P3X63 cytotoxicity assay, extract 1/150 is 57%; the Efficacy (%), P3X63 cytotoxicity, MOI 12 is 100%; the IC50 value (M), P3X63 cytotoxicity, MOI 12 came out at 1.8e-10 M; the Ratio (IC50 Fab 13.37/IC50 Nanobody), A549 cytotoxicity came to 0.3 fold.

B5: Nanobody 283 (7E09-40GS-6B05) (VHH)
chain: EVQLVESGGGLVQAGGSLRLSCAASGRTFSSYIMGWFRQAPGKAREFVADITWGQRPYYADSVKGRFTISRDNAKNTVYLEMNSLKPEDTAVYYCAADLGVVIREEHAYWGQGTLVTVSSGGGGSGGGGSGGGGSGGGGSGGGGSGGGGSGGGGSGGGGSEVQLVESGGGLVQPGGSLRLSCAASGSIFSINTMGWYRQAPGKQRELVSTITSNLVPHYADSVQGRFTISRDNARNTVYLQMNSLKPQDTAHYYCNAWARSSGATPYTNYWGQGTLVTVSS
On to B5, for which the % inhibition in P3X63 cytotoxicity assay, extract 1/150 turned out to be 45%; the Efficacy (%), P3X63 cytotoxicity, MOI 12 was 100%; the IC50 value (M), P3X63 cytotoxicity, MOI 12 was 7.6e-11 M; the Ratio (IC50 Fab 13.37/IC50 Nanobody), A549 cytotoxicity turned out to be 1 fold.
